Measurements reported in publication PMC6891085.
Read-outs that look alike come from different tables or passages of the source.

Experiments:
Test in all cases: co-sedimentation
[1] = target: taxol-stabilized microtubules (MTs) of porcine brain tubulin (porcine) (UniProt P02550)
[2] = target: subtilisin-treated MTs (s-MTs) (porcine) (UniProt P02550)
[3] = target: taxol-stabilized microtubules (MTs) of porcine brain tubulin (porcine) (UniProt P02550); remark: listed apart in the source

UniProt P02550, sequence (P02550 whole entry): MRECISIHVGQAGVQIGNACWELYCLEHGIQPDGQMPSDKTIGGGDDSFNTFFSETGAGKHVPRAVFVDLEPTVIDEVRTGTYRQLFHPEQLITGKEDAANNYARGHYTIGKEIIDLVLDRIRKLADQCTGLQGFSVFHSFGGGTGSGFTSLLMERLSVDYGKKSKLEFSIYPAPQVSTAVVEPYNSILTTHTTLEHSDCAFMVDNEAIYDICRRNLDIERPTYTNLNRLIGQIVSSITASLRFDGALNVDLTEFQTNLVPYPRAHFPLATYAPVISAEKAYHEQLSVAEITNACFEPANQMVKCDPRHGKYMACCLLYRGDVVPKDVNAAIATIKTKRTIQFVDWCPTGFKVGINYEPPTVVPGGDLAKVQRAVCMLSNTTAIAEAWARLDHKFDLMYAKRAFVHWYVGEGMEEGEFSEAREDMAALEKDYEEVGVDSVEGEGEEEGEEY

| Substance | Kd [1] [nM] | Kd [2] [nM] | Kd [3] [nM] |
| --- | --- | --- | --- |
| MBP-tagged Abl2 (from UniProt Q4JIM5 74-1182) (enzyme) | 360 | > 3000 | 210 |
| Abl2-557-C (from UniProt Q4JIM5 557-1182) (domain or fragment) | – | – | 700 |
| Abl2-N-688 (from UniProt Q4JIM5 74-688) (domain or fragment) | – | – | 240 |

The remaining substances from weak to strong by Kd [3], led by results:

| Kd [1] [nM] | Kd [2] [nM] | Kd [3] [nM] | Substance |
| --- | --- | --- | --- |
| – | – | 1300 | MBP-tagged Abl2-557-688 (from UniProt Q4JIM5 557-688) (domain or fragment) |
| – | – | 170 | Abl2 with MBP cleaved off (from UniProt Q4JIM5 74-1182) (enzyme) |
